Target: pyruvate kinase type M2 (PKM2) (human (endogenous in A549)) (UniProt P14618)
Test: cross-linking; A549 cells in PBS (2 mg/ml protein), EDC 10 mM / sulfo-NHS 5 mM, room temperature, quenched with 20 mM DTT, then western blot for PKM2; cells treated with pTyr peptide, FBP or serine

Sequence of pyruvate kinase type M2 (PKM2), P14618 1-531 (enzyme; other documents disagree on this pair) (P14618 whole entry): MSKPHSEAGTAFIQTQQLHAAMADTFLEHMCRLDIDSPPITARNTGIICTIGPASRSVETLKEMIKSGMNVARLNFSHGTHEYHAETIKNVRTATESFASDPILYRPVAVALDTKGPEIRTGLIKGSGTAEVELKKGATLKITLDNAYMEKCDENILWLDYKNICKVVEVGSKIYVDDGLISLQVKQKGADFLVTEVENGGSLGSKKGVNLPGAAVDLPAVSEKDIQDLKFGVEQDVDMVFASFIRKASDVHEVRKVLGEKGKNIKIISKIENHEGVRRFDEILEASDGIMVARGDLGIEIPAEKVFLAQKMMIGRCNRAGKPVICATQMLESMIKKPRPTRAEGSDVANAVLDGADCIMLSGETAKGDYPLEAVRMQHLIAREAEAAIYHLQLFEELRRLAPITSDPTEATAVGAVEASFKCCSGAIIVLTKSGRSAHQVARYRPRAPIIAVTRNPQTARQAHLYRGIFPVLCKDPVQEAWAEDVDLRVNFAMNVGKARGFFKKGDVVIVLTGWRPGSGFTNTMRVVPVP

stoichiometry N: 2
Substance: pyruvate kinase type M2 (PKM2), P14618 1-531 (enzyme; other documents disagree on this pair)

From PMC5228053
